# The DeepSol protein solubility set
# Assay: soluble on expression in E. coli; label from the status in PepcDB or PDB records
row,Sequence,soluble on expression in E. coli
1,MVTLEELKAVFKPKLKPIIWREDSLDLLDQSALPFQTTYITVKTPEEVAKAIKLMQVRGAPAIGITAGYGMVLALISTKPNTLNEAIEELVKAKQIMDQARPTAVNLSWATSRMLNFAKKKIEEGEAKSVSELIQLMKEEANRIYEEELEAELKIGMYGLEKISDGDTILTQCNAGGLATGTGLGTALAPVKLAHYLGMKVSVIAPETRPWLQGSRLTVYELMAEGIQVTLITDTAVGLVIYKNMVNSVMVGADRILKDGHVFNKIGTFKEAVISHELGIPFYALAPSSSFDLKSKVDEIKIEERDPNEVRTIRGIPIVPENVKVYNPVFDVTPPKYITALITEKGVIYPPFEKNIPKIIGL,soluble
2,MAHHHHHHMRTSDARPASPSAAPPQSRKYQLSQRPLQLPRPPPRRFLEHPHHNLLPCTSDVKRLMENEYELRRVVRDVLLERLGMEGSHVEPPLRLCTEDSAEVTASPFCAVASVSTPLSSAGESAKQPRCAHDTGLRSMRAPDVDDIAGSSQPTWLMPWLQRLRMEQEKQLRQMRKMLVVARRSVSPDSSDVDARASSLMKTTGEARDDTRTAEPPHALLWQRHRCLPPADRPEAVEACSTLRAMQETMQAQSTQLARLEELLQETLIPDTARRTSHGAGALPLPSPSVHQVEAAAAARANHTGHRSRSNDTVLPTLTHTAASPKKNVRRAVPSRSGCSADVPAAAAAAAAATSSRVSTCVSAPSPPPRLHPEKRTLCGGVH,not soluble
3,AGADGTSEELADNFVFGFHATVEALQQGRGNKLFLQEDARGEKIEQLKQAAKEQAVPVKWVPKAKLDTMSDHGVHQGMVLAITA,not soluble
4,MGSDKIHHHHHHMRIDIDAFNVLQVLVEEGSFAKASERLHKAQSAVSYQVKKLEQHLGVTLFNRDHYRAELTPEGKVILAEGQRLLQHLANIEHLASRFSQGWEPKLELVIDGALPMEPIMTALKRMSEHNIPTKVQLNMEFLGGVQHRFERDQADLMLVKDYRTGPSYHPKPLPTITSVLVASSQHPLSLLKEISLPELQQHVELTIEDSSPGKRDRDEMQFGGDKVFYLSGFIMKKNALLKGLGFGWMPDFLIAEELHQRQLIEVDFIGGNRFSFTPQLVSTLERPLGRAGQLFTELILEEFAQYQLQHQSGLSGAGLG,not soluble
5,MGSDKIHHHHHHMANFSYEVFSKVVERGTLAKAAAELNVTPSAVSHSVSQLETELGFPLLIRNRTGVALTEDGAQVLPIIQSIQNLEEQLTQVADNINGVNTGRIRIGAFSSVSTNWLPTIIRRFKKRYPHIEISVVQGTFNRIVEAVRLGTADIGFSSLPVGPGVVVEPLLKDPIYCITAKQFKPKNGRTVTQADVDKQNFILQQIDYDRDTKNALDRYHVSSNAINYSIDDQSILSMVESGLGMGILPKLAVQKLVGDVNMYPFSEPFERTLCLVINPTIKKSPSVQRMQQVIHSFLAETYGEAFLGHQG,not soluble
6,MPAKPQLISPAGDWTSMRAALDAGADAVYFGAEGFNMRAASKGFSPGDFGGIARLCRSHGAKAYLALNSVIYDAELDEVDRTAAAAKAAGLDAVICWDLAVIEACRRHEMPIHLSTQASVSNINALRFYASLGARMIVLARELTLEQTAAITKCIAAEKLPVTVESFVHGAMCVAISGRCFLSQELFGRSANRGECVQPCRRSYRIADVEEGFELELGSNYVMSPKDLCALPFLDKLFDAGIGAFKIEGRNRSPEYVATTTAAYRKAIDFIAAHRNDKDFDEAYRSLTDRLQNDLVRVYNRGFSEGFFFGKPADAWTKHSGSAATETKSYVGVVRKYFPKAGVAEILVHAPSVDSGVRLSIQGPATGLVTVPDAELHLDGQLANRIEQGQIFTVRCDRVRKNDKVYVLLKN,not soluble
7,MSLAYTIKKVEKETKISAHTLRFWAKKGLFPFVQKDENSVKYFSKSDIEWVKWIEWLRISGMPIEQVKHYIKLCSLGIKTAKERQEMLKQTKKKLQNQIKTLKESEKVLSKKIKIYEEMLANEVDGFNPESKDYQPCDKLHKFKGEGHHHHHH,not soluble
8,MSLDKEYRITLLHNVAHYGHAEATRILLAAGARVNAVNGEGNTPLFAAVHEGHDDVARILLDAGADVTIANSYWYTPLREACRRGNTGMVRLLLEKGADVNITDNKGFTPLHAAVSAEALEAATLILDSGADINIAGRYGDTPLHYAVGLGYEEFVRLFLARGADPTIRNDRGLTPRQLAEERGFASIVELFRNWGKNTEGHHHHHH,soluble
9,MSDEALTLLFSAVENGDQNCIDLLCNLALRNDDLGHRVEKFLFDLFSGKRTGSSDIDKKINQACLVLHQIANNDITKDNTEWKKLHAPSRLLYMAGSATTDLSKKIGIAHKIMGDQFAQTDQEQVGVENLWCGARMLSSDELAAATQGLVQESPLLSVNYPIGLIHPTTKENILSTQLLEKIAQSGLSHNEVFLVNTGDHWLLCLFYKLAEKIKCLIFNTYYDLNENTKQEIIEAAKIAGISESDEVNFIEMNLQNNVPNGCGLFCYHTIQLLSNAGQNDPATTLREFAENFLTLSVEEQALFNTQTRRQIYEYSLQ,not soluble
10,MGSDKIHHHHHHMAKEKTIYVCRSCGTKYAKWQGNCNACGEWNCIDEEKVPAPASGKHAAKSFMPREQDNRPRLLQDVESGDEERIRLGDEEFDRVLGGGIVKGAFVLLGGEPGIGKSTLILQTVLRLPQLRTLYVSGEESARQLKMRAERLGQAMNGCYVYCETNIERILSRAEELTPDLLVIDSIQTVYTEEMESSAGSVGQIRECAALLLKYCKTTGIPVIVIGHITKEGSIAGPKVLEHIVDTVLLFDGDKHHLYRILRGQKNRYGSTSELGIYEMRQDGLRGVENPSEHLITRNREDLSGIAIAVAMEGIRPILIEAQALVSSAIYANPQRSATGFDIRRMNMLLAVLEKRAGFKLIQKDVFLNIAGGIKIADPATDLAVISAVLASSLDIVIPPAVCMTGEVGLSGEIRPVSRIEQRITEARRIGFKEILVPADNFRQEDAGRFGIRLVPVRKVEEAFRHLFSKGRE,not soluble
11,GSHMATEPKAGRPSDYMPEVADDICSLLSSGESLLKVCKRPGMPDKSTVFRWLAKHEDFRDKYAKATEARADSIFEEIFEIADNAIPDAAEVAKARLRVDTRKWALARMNPRKYGDKVTNELVGKDGGAIQIETSPMSTLFGK,soluble
12,MAHHHHHHMSEALTPPDSWSHGHPDVNAELKLLRGAVAQALVEARQSSDFCRRIQHDISEYFQSEQRRRVQSGDSIESEQFIPNVMASVDGHLAEFESFIIGRVREELENKVDKDLSEKFDSYRMQLEHLRQQEEEQEARLRFILEDAVKMNCELRNEMKWCASELWDRVSAMEEKLKFMATRTHTNAGGKDVMDLGLPNALREVIGILTLLSEGLEVERELHNEERQRWMSLMSRAVEKIRLLGERDEALEANLQELRQVAAAIQHRFGEFSGFVVDFWHRLEMMGSPSVAVEDAACEGSLSMYSKAGICAKKQMDDFMKELHEVGVALRALQVEHVGFKDILDSNTVNITEIRRNVEALAVGAKLIAEERERIDREESSLDLQYLIRSTPRDGNECEGSTGTPRRGNLSLRKQWQVAHLPTLELLHGKICNIPISHAFRLWAAWASGRRQLRRDKTMVHEPQEDPDTNSLGSRK,not soluble
13,MATDSWALAVDEQEAAAESLSNLHLKEEKIKPDTNGAVVKTNANAEKTDEEEKEDRAAQSLLNKLIRSNLVDNTNQVEVLQRDPNSPLYSVKSFEELRLKPQLLQGVYAMGFNRPSKIQENALPLMLAEPPQNLIAQSQSGTGKTAAFVLAMLSQVEPANKYPQCLCLSPTYELALQTGKVIEQMGKFYPELKLAYAVRGNKLERGQKISEQIVIGTPGTVLDWCSKLKFIDPKKIKVFVLDEADVMIATQGHQDQSIRIQRMLPRNCQMLLFSATFEDSVWKFAQKVVPDPNVIKLKREEETLDTIKQYYVLCSSRDEKFQALCNLYGAITIAQAMIFCHTRKTASWLAAELSKEGHQVALLSGEMMVEQRAAVIERFREGKEKVLVTTNVCARGIDVEQVSVVINFDLPVDKDGNPDNETYLHRIGRTGRFGKRGLAVNMVDSKHSMNILNRIQEHFNKKIERLDTDDLDEIEKIAN,soluble
14,MERAGICHSDGFDLAYRIEGEGAPILVIGSAAYYPRLFSSDIKQKYQWVFVDHRGFAKPKRELRAEDSRLDAVLADIERMRTFLQLEDVTTLGHSGHAFMALEYARTYPKQVRKVALFNTAPDNSEERQRKSESFFMETASLERKKRFEKDIENLPQDIDKDPERRFVHMCIRAEAKSFYQERPHAAALWDGVFTNMPIIDELWGNTFARIDLLQRLADVRMPVYIGLGRYDYLVAPVSLWDAVDGLYPHVDKVIFEKSGHQPMLEEPEAFDQSFRKWLDQ,not soluble
15,MGEIIKESDKRVALKLPANVTEIDDRAFLGCTRLESIDLSACTSLTAIKLAAFKGCTSLKAVQLPQSLTTIGHFAFEGCTALKEVELPQNLTVIGTDAFKGCSIETLVIHCDIKGTIIENFTKKDEVNKNVKKLTLGKGVTTIGNYAFYIIGYSKLAAVDFSACTALTEIGENAFAYSKLTNVNLSACIKLTEIGKSAFSNCTDLTNVDLSGCTALTTIGEQAFNSCYEATVKLPTGITAIGNEAFGENDEDFLCKNVLIPRSHAATIKPLVTASDYPEDRIREY,not soluble
16,AHHHHHHGSKARGRAWKYGDNIDTDVIIPARYLNTSDPKELAQHVLEDLDPEFRYKMKPGDIIVAGENFGCGSSREHAPLAIKAAGVSAVIAKSFARIFYRNAINIGLPILEAPEAVERIETGDEIEIDFSTGEIRNLTKGEVYHANPFPEFIMEIIKAGGLVEWAKRRLAK,soluble
17,MTESLNRDLPVLLATLNKLSSDADRILLENREDIRKIAYNLSIVMEKVKDDLPVLVENLKELSVNLNTVVKNNKVNINKTLVSLRKTTENLSRASYKLDKILADLESGKGTLGKLLKDEELYENVNQGVKALGKAGKVVEKTQLYIGLRGELYREGDSKGILSVRLVPDRDKYYLLEVVGDSRGRVYREEYLDGREVVKKEFKPEFTLQYARNFSLFGRTLTLRGGLKENTGGVGADYYIYRDKYLFADLWDFGRKDRPQDKDLKPNLQIGIHWYINRNLYVRFGGDDLLNSKLRGFFGGVGLEFVDEDLKYLLGGIGVPIR,not soluble
18,MAHHHHHHMFHRHSFYEKGSSAPRDGAGAGADGTQAHGGAAGGSCNNGGTSSSSTASSQQQREQDERLYGMGSATAQQRRQVRQQWEKSFFGRLHYEEGMHDRFSEALKSEDAEAFRQSIAGQSHADLFPHWPEEEEAPLSEFKRLRPSLQLHYIVNRLSSGERRIRYSVDFGGLLMMPQLNLGEMMVKEADTLLRELGWMNDEVAMRIEEVQALASKIKFDFDLD,soluble
19,MGSDKIHHHHHHMYLKETLDQFASIDNILKLLKKNPSFNKHCIQERLPQKTIITSNKQRKHIYIIEEGFMKLIFDDNKPRDFSYILSKGAFPFLPVYTEDIPEHTMMVALTDIVWWKIDISFFKGMMETEDPRNYLMLHQLAETRRRFYTIAYQEKLTSRESIYYSLSTMIEFGLRISEKIVELPEFLTYQILADHANTSKSYTSKVLGHLREEGILESQRKPWRINDVQKLQKLIEMNVPLVKIQKN,not soluble
20,MTIKEDLGRRIKAERNRKQLTQSLLCGDETKLTIRQLQRIEGGQSLPTLEKLEFIADRLGTKIADLLEGSDIQLPDDYWELKGQIVKFPTYADKERLQQKQELIEEIYDKYFDILPEDELLFLDLSENILDSFHEKDIPNIEEIYDDAFEQVLKKETFAFNDYLYMSYFLQKCGKTADYDQTTFKLLEQKLLKQELTVDELYNIELLIAVMEASGVYALHNDYQNLLPLMKKAQRIIDKAQLHTYKPPLLELEAKYYVKVVKDKKKAKELYQQALVMGEVLGDPVIIADVKMEMANDGID,not soluble
